Test results published in patent publication US20180155451A1 (published 2018).

T1: FcγRIIb, extracellular domain with C-terminal His tag (human, UniProt P31994 43-217)
T1 construct: extracellular domain; also called 2b; FcgRIIb; not shown: His tag at the C terminus
T1 sequence (looked up): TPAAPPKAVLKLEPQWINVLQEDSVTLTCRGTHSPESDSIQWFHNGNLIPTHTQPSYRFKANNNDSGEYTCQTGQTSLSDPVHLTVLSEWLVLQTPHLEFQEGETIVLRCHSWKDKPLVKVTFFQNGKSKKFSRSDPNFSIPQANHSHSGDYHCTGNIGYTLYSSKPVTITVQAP

T2: FcγRIIa H (FcγRIIa type H, His at position 131), extracellular domain with C-terminal His tag (human, UniProt P12318 34-217)
T2 construct: extracellular domain; also called 2aH; FcgRIIa H; not shown: His tag at the C terminus
T2 sequence (looked up): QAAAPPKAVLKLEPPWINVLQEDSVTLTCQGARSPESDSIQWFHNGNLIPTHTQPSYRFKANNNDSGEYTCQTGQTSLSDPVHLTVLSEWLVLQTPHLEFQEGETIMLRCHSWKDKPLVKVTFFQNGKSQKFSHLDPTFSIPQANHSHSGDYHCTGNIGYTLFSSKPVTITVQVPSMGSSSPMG

B1: GpH7-A5/GpH7-B3 variant H268_05P/GpL16-k0 (antibody, human IgG1, kappa)
heavy 1: not shown
heavy 2: not shown
light: DIVMTQSPLSLPVTPGEPASISCQASESLVHSNRNTYLHWYLQKPGQSPQLLIYKVSNRFSGVPDRFSGSGSGTDFTLKISRVEAEDVGVYYCSQNTHVPPTFGQGTKVEIERTVAAPSVFIFPPSDEQLKSGTASVVCLLNNFYPREAKVQWKVDNALQSGNSQESVTEQDSKDSTYSLSSTLTLSKADYEKHKVYACEVTHQGLSSPVTKSFNRGEC
notes: Heterodimerized IgG1 (He Ab); mutation only in the GpH7-B3 chain; also called He Ab H268P
B2: GpH7-A5/GpH7-B3 variant Y300_10E/GpL16-k0 (antibody, human IgG1, kappa)
heavy 1: not shown
heavy 2: not shown
light: B1 light
notes: Heterodimerized IgG1 (He Ab); mutation only in the GpH7-B3 chain; also called He Ab Y300E
B3: GpH7-A5/GpH7-B3 variant Y296_20W/GpL16-k0 (antibody, human IgG1, kappa)
heavy 1: not shown
heavy 2: not shown
light: B1 light
notes: Heterodimerized IgG1 (He Ab); mutation only in the GpH7-B3 chain; also called He Ab Y296W
B4: GpH7-A5/GpH7-B3 variant S298_06M/GpL16-k0 (antibody, human IgG1, kappa)
heavy 1: not shown
heavy 2: not shown
light: B1 light
notes: Heterodimerized IgG1 (He Ab); mutation only in the GpH7-B3 chain; also called He Ab S298M
B5: GpH7-A5/GpH7-B3 variant Y300_19Q/GpL16-k0 (antibody, human IgG1, kappa)
heavy 1: not shown
heavy 2: not shown
light: B1 light
notes: Heterodimerized IgG1 (He Ab); mutation only in the GpH7-B3 chain; also called He Ab Y300Q
B6: GpH7-A5/GpH7-B3 variant K326_08L/GpL16-k0 (antibody, human IgG1, kappa)
heavy 1: not shown
heavy 2: not shown
light: B1 light
notes: Heterodimerized IgG1 (He Ab); mutation only in the GpH7-B3 chain; also called He Ab K326L
B7: GpH7-A5/GpH7-B3 variant H268_01G/GpL16-k0 (antibody, human IgG1, kappa)
heavy 1: not shown
heavy 2: not shown
light: B1 light
notes: Heterodimerized IgG1 (He Ab); mutation only in the GpH7-B3 chain; also called He Ab H268G
B8: GpH7-A5/GpH7-B3 variant S298_08L/GpL16-k0 (antibody, human IgG1, kappa)
heavy 1: not shown
heavy 2: not shown
light: B1 light
notes: Heterodimerized IgG1 (He Ab); mutation only in the GpH7-B3 chain; also called He Ab S298L
B9: GpH7-A5/GpH7-B3 variant S267_19Q/GpL16-k0 (antibody, human IgG1, kappa)
heavy 1: not shown
heavy 2: not shown
light: B1 light
notes: Heterodimerized IgG1 (He Ab); mutation only in the GpH7-B3 chain; also called He Ab S267Q
B10: GpH7-A5/GpH7-B3 variant K326_04F/GpL16-k0 (antibody, human IgG1, kappa)
heavy 1: not shown
heavy 2: not shown
light: B1 light
notes: Heterodimerized IgG1 (He Ab); mutation only in the GpH7-B3 chain; also called He Ab K326F
B11: GpH7-A5/GpH7-B3 variant K326_03V/GpL16-k0 (antibody, human IgG1, kappa)
heavy 1: not shown
heavy 2: not shown
light: B1 light
notes: Heterodimerized IgG1 (He Ab); mutation only in the GpH7-B3 chain; also called He Ab K326V
B12: GpH7-A5/GpH7-B3 variant P271_09D/GpL16-k0 (antibody, human IgG1, kappa)
heavy 1: not shown
heavy 2: not shown
light: B1 light
notes: Heterodimerized IgG1 (He Ab); mutation only in the GpH7-B3 chain; also called He Ab P271D
B13: GpH7-A5/GpH7-B3 variant H268_20W/GpL16-k0 (antibody, human IgG1, kappa)
heavy 1: not shown
heavy 2: not shown
light: B1 light
notes: Heterodimerized IgG1 (He Ab); mutation only in the GpH7-B3 chain; also called He Ab H268W
B14: GpH7-A5/GpH7-B3 variant P271_10E/GpL16-k0 (antibody, human IgG1, kappa)
heavy 1: not shown
heavy 2: not shown
light: B1 light
notes: Heterodimerized IgG1 (He Ab); mutation only in the GpH7-B3 chain; also called He Ab P271E
B15: GpH7-A5/GpH7-B3 variant K326_05P/GpL16-k0 (antibody, human IgG1, kappa)
heavy 1: not shown
heavy 2: not shown
light: B1 light
notes: Heterodimerized IgG1 (He Ab); mutation only in the GpH7-B3 chain; also called He Ab K326P
B16: GpH7-A5/GpH7-B3 variant P271_08L/GpL16-k0 (antibody, human IgG1, kappa)
heavy 1: not shown
heavy 2: not shown
light: B1 light
notes: Heterodimerized IgG1 (He Ab); mutation only in the GpH7-B3 chain; also called He Ab P271L
B17: GpH7-A5/GpH7-B3 variant H268_03V/GpL16-k0 (antibody, human IgG1, kappa)
heavy 1: not shown
heavy 2: not shown
light: B1 light
notes: Heterodimerized IgG1 (He Ab); mutation only in the GpH7-B3 chain; also called He Ab H268V

The binders below were run against T1, FcγRIIb, extracellular domain with … (assay: SPR (Biacore), antibody captured on antigen-peptide chip, FcγR as analyte; GpH7-A5/GpH7-B3/GpL16-k0 = 100).
Procedure: (§1) The heterodimerized antibodies He Abs in which one of the H chains was introduced with an alteration were assayed for their binding activities to each activating FcγR and inhibitory FcγR according to the method described in Example 4. […] The activating FcγRs in FIGS. 26, 27, 28, and 29 are FcγRIa, FcγRIIa (R), FcγRIIa (H), and FcγRIIIa, respectively.
(§2) Analysis of interaction between objective antibody and the FcγR was carried out using Biacore T100 (GE Healthcare). HBS-EP+ (GE Healthcare) was used as the running buffer, and the measurement temperature was set to 25° C. Chips produced by immobilizing the antigen peptide by the amine coupling method to a Series S Sencor Chip CM5 (GE Healthcare), or alternatively, chips produced by allowing preliminarily biotinylated antigen peptides to interact with and immobilize onto a Series S Sensor Chip SA (certified) (GE Healthcare) were used. Antibodies of interest were captured onto an antigen peptide-immobilized chip, and allowed to interact to each FcγR diluted with running buffer. To regenerate and repeatedly use the chip, the antibodies captured on the chip were washed off by reacting 10 mM glycine-HCl, pH 1.5.

He/Con_2b (relative binding activity)	Binder
116 % of control	B1
134 % of control	B2
103 % of control	B3
102 % of control	B4
108 % of control	B5
177 % of control	B6
144 % of control	B7
108 % of control	B8
218 % of control	B9
155 % of control	B10
175 % of control	B11
120 % of control	B12
111 % of control	B13
109 % of control	B14
126 % of control	B15
103 % of control	B16
114 % of control	B17

What follows are binders tested against T2, FcγRIIa H (FcγRIIa type H, His at …) in the same assay as above.
Procedure: as §1, §2

He/Con_2aH (relative binding activity)	Binder
81.8 % of control	B1
97.2 % of control	B2
97.6 % of control	B3
98.1 % of control	B4
96.1 % of control	B5
92.7 % of control	B6
99.2 % of control	B7
85 % of control	B8
61.3 % of control	B9
97 % of control	B10
97 % of control	B11
70.1 % of control	B12
95.8 % of control	B13
63.1 % of control	B14
98.8 % of control	B15
86.7 % of control	B16
99.2 % of control	B17
